Reference: US20020012669A1

Biological target: CRF2-4/zcytor11 heterodimeric receptor on BaF3/CRF2-4/zcytor11 cells (human) (UniProt Q8N6P7)
Experiment: cell-based or functional assay

Chain of CRF2-4/zcytor11 heterodimeric receptor on BaF3/CRF2-4/zcytor11 cells (human) (Q8N6P7 16-574 limits assumed, chain 1 of 2): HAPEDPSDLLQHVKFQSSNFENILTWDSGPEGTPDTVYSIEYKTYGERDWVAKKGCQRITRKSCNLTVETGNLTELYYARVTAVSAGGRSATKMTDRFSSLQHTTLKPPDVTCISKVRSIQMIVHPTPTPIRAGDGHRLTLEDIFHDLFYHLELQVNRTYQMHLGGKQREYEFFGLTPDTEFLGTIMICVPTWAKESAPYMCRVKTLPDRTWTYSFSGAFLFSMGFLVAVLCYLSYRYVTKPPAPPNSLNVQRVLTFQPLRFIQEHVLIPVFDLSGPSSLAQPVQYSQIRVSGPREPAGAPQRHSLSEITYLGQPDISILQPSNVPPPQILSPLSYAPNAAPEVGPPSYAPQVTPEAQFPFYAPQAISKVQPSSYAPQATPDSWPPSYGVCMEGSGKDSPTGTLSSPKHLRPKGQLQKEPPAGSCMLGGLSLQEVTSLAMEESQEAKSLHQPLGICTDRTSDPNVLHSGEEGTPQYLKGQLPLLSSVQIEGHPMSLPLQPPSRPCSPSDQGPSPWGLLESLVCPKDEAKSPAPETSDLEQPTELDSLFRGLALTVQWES
Chain of CRF2-4/zcytor11 heterodimeric receptor on BaF3/CRF2-4/zcytor11 cells (human) (Q08334 20-325 limits assumed, chain 2 of 2, further chain): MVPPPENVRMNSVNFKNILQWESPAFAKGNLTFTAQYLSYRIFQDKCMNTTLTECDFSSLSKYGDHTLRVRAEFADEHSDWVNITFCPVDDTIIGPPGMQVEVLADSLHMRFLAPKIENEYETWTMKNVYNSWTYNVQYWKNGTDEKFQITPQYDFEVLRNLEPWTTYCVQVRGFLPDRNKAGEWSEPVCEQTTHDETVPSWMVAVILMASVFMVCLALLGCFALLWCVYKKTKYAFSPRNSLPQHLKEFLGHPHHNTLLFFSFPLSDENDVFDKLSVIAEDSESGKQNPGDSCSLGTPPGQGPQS

IL-TIF-CEE (human IL-TIF with C-terminal Glu-Glu tag) (from UniProt Q9GZX6 34-179) (ligand)
Alamar Blue proliferation of BaF3/CRF2-4/zcytor11 cells, IL-TIF-CEE at 0.06 ng/ml (fold induction): 2 | Alamar Blue proliferation of BaF3/CRF2-4/zcytor11 cells, IL-TIF-CEE at 50 ng/ml (fold over background): 15
